The text below walks through data of patent publication US20250051425A1 (YALE UNIVERSITY, published 2025).

The target in assay [1] is T1, Influenza A H1N1 (A/Puerto Rico/8/1934) Hemagglutinin/HA Protein (ECD, His Tag) (Influenza A H1N1 (A/Puerto Rico/8/1934), UniProt P03452 18-528).
T1 construct: extracellular domain; Bought; also called influenza A/PR8 (H1N1) hemagglutinin (HA); H1N1 HA
Briefly: ELISA, coated antigen. For orientation: In an ELISA, binding on a coated surface is turned into a signal by an enzyme label.

The target in assay [2] is T2, SARS S1 protein, His Tag (SARS-CoV-1, UniProt P59594 14-667).
T2 construct: domain: S1; also called recombinant severe acute respiratory syndrome coronavirus 1 (SARS-CoV-1) spike protein
Put plainly: ELISA, coated antigen, mAb 3 µg/mL.

T1 sequence (P03452 18-528): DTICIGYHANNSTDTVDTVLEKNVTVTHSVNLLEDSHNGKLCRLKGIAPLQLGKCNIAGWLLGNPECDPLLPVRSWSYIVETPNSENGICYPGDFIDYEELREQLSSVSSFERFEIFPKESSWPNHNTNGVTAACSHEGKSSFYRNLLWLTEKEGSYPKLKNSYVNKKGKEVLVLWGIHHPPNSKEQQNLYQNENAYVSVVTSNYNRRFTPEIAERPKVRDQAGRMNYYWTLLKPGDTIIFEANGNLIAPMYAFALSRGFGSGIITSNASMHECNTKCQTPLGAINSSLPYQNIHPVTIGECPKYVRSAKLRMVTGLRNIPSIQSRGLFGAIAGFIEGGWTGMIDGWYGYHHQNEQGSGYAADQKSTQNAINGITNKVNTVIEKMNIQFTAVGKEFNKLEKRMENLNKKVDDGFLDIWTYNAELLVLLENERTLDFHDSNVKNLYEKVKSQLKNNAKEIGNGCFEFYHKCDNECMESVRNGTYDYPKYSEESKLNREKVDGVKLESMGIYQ

B1: IGHV6-3 monoclonal antibody (mouse IgG2c, Ig kappa) (antibody, V domains shown)
VH: EVKLEESGGGLVQPGGSMKLSCVASGFTFSNYWMNWVRQSPEKGLEWVAQIRLKSDNYATHYAESVKGRFTISRDDSKSSVYLQMNNLRAEDTGIYYCTDITGPIDYWGQGTTLTVSS
VL: DIKMTQSPSSMYASLGERVTITCKASQDINSYLSWFQQKPGKSPKTLIYRANRLVDGVPSRFSGSGSGQDYSLTISSLEYEDMGIYYCLQYDEFPYTFGGGTKLEIK
notes: also called IGHV6-3 mAb; Mouse IGHV6-3 mAb, g2c
On to B1, for which the binding result in assay [1] and in assay [2] was “binds” each time.
